Test results as given in doi:10.1101/2024.11.27.625426 (bioRxiv, 2024).

Assays:
[1] = target: sNAp of A/Vietnam/1203/2004 (VN04, H5N1) NA (Influenza A virus A/Vietnam/1203/2004 …, UniProt Q6DPL2, stabilised); experiment: ELISA; conditions: both partners purified
[2] = target: T1, N1-CA09-sNAp, stabilized neuraminidase protein of A/California/04/2009 (H1N1) (Influenza A virus A/California/04/2009 …, stabilised); experiment: cryo-EM structure; conditions: both partners purified
T1 chain: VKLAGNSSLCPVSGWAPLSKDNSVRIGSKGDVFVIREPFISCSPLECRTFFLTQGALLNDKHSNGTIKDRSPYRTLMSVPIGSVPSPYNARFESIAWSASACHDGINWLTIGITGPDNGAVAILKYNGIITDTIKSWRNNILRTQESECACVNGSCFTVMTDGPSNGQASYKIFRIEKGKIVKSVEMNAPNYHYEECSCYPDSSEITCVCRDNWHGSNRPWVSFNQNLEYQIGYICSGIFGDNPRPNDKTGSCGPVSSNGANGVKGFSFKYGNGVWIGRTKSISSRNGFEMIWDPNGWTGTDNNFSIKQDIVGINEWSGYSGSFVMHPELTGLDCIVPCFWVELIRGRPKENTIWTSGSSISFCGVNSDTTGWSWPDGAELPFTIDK

B1: NCS.1.1 mAb (IgG) (antibody, V domains shown)
VH: QVQLQESGPRLVKPSETLSLTCSVSGESISSGGYYWTWIRQHPGKGLEWIGNIFDTGSTDYSPSLKTRLTISIDTSKNQFYLRLNSATAADTAVYYCARVGFSLETDRPYYLGLDVWGQGTTVTVSS
VL: DIVMTQSPLSLPVTPGEPASISCRSSQSLLHSNGYTYLDWYLQKPGQSPQLLISFTSNRASGVPDRFSGSGSGTYFTLKISRVEAEDVGVYYCMQAVQTPWTFGQGTKVEIK
notes: copies: 2 + 2
binding result [1]: binds

B2: NCS.1.3 mAb (IgG) (antibody, V domains shown)
VH: QVQLQESGPRLVKPSETLSLTCSVSGESISSGGYYWTWIRQHPGKGLEWIGNIFDTGSTDYSPSLKTRLTISIDTSKNQFYLRLTSATAADTAVYYCARVGFSLETDRPYYLGLDVWGQGTTVTVSS
VL: DIVMTQSPLTLPVTPGEPASISCRSSQSLLHSNGYTYLDWYLQKPGQSPQLLIYFASNRASGVPDRFSGSGSGTYFTLKISRVEAEDVGVYYCMQAVQSPWTFGQGTKVEIK
notes: copies: 2 + 2
binding result [1]: binds

B3: NCS.1.1 Fab (Fab, V domains shown)
VH: QVQLQESGPRLVKPSETLSLTCSVSGESISSGGYYWTWIRQHPGKGLEWIGNIFDTGSTDYSPSLKTRLTISIDTSKNQFYLRLNSATAADTAVYYCARVGFSLETDRPYYLGLDVWGQGTTVTVSS
VL: DIVMTQSPLSLPVTPGEPASISCRSSQSLLHSNGYTYLDWYLQKPGQSPQLLISFTSNRASGVPDRFSGSGSGTYFTLKISRVEAEDVGVYYCMQAVQTPWTFGQGTKVEIK
stoichiometry N [2]: 4 Fabs per NA tetramer
